Assay results published in patent US11046988B2, “Process for the modification of a glycoprotein using a β-(1,4)-N-acetylgalactosaminyl transferase or a mutant thereof” (Synaffix B.V., priority 2014, dated 2021).
Residue numbers refer to the chain shown, from its start. Names and notes keep the numbering of the source.

B1: AsGalNAcT: truncated Ascaris suum β-(1,4)-GalNAcT, amino acids 30-383 of SEQ ID NO: 3 (SEQ ID NO: 7) (protein)
chain: DYSFWSPAFIISAPKTLTTLQPFSQSTSTNDLAVSALESVEFSMLDNSSILHASDNWTNDELVMRAQNENLQLCPMTPPALVGPIKVWMDAPSFAELERLYPFLEPGGHGMPTACRARHRVAIVVPYRDRESHLRTFLHNLHSLLTKQQLDYAIFVVEQTANETFNRAKLMNVGYAEAIRLYDWRCFIFHDVDLLPEDDRNLYSCPDEPRHMSVAVDKFNYKLPYGSIFGGISALTREQFEGINGFSNDYWGWGGEDDDLSTRVTLAGYKISRYPAEIARYKMIKHNSEKKNPVNRCRYKLMSATKSRWRNDGLSSLSYDLISLGRLPLYTHIKVDLLEKQSRRYLRTHGFPTC
modifications: AsGalNAcT (30-383)
B2: DmGalNAcT: truncated Drosophila melanogaster β-(1,4)-GalNAcT, amino acids 47-403 of SEQ ID NO: 5 (SEQ ID NO: 9) (protein)
chain: HKYAHIYGNASSDGAGGSEASRLPASPLALSKDRERDQELNGGPNSTIRTVIATANFTSIPQDLTRFLLGTKKFLPPRQKSTSALLANCTDPDPRDGGPITPNTTLESLDVIEAELGPLLRPGGAFEPENCNAQHHVAIVVPFRDRYAHLLLFLRNIHPFLMKQRIAYRIFIVEQTNGKPFNRAAMMNIGYLEALKLYQWDCFIFHDVDLLPLDDRNLYNCPRQPRHMSVAIDTLNFRLPYRSIFGGVSAMTREHFQAVNGFSNSFFGWGGEDDDMSNRLKHANLFISRYPVNIARYKMLKHQKEKANPKRYENLQNGMSKIEQDGINSIKYSIYSIKQFPTFTWYLAELKNSERKS
modifications: DmGalNAcT (47-403)
B3: TnGalNAcT(wt): wild-type TnGalNAcT compared with the mutants; probably His6-TnGalNAcT(33-421), SEQ ID NO: 49, from E. coli (protein)
chain: MGSSHHHHHHSSGLVPRGSHMSPLRTYLYTPLYNATQPTLRNVERLAANWPKKIPSNYIEDSEEYSIKNISLSNHTTRASVVHPPSSITETASKLDKNMTIQDGAFAMISPTPLLITKLMDSIKSYVTTEDGVKKAEAVVTLPLCDSMPPDLGPITLNKTELELEWVEKKFPEVEWGGRYSPPNCTARHRVAIIVPYRDRQQHLAIFLNHMHPFLMKQQIEYGIFIVEQEGNKDFNRAKLMNVGFVESQKLVAEGWQCFVFHDIDLLPLDTRNLYSCPRQPRHMSASIDKLHFKLPYEDIFGGVSAMTLEQFTRVNGFSNKYWGWGGEDDDMSYRLKKINYHIARYKMSIARYAMLDHKKSTPNPKRYQLLSQTSKTFQKDGLSTLEYELVQVVQYHLYTHILVNIDERS
modifications: His6-TnGalNAcT(33-421)
B4: TnGalNAcT(W336V): T. ni GalNAcT mutant, tryptophan 336 to valine, SEQ ID NO: 52 (protein)
chain: B3 chain with W325V
modifications: His6-TnGalNAcT(33-421; W336V)
B5: TnGalNAcT(W336F): T. ni GalNAcT mutant, tryptophan 336 to phenylalanine, SEQ ID NO: 50 (protein)
chain: B3 chain with W325F
modifications: His6-TnGalNAcT(33-421; W336F)
B6: TnGalNAcT(E339A): T. ni GalNAcT mutant, glutamic acid 339 to alanine, SEQ ID NO: 53 (protein)
chain: B3 chain with E328A
modifications: His6-TnGalNAcT(33-421; E339A)
B7: TnGalNAcT(L302A): T. ni GalNAcT mutant, leucine 302 to alanine, SEQ ID NO: 43 (protein)
chain: B3 chain with L291A
modifications: His6-TnGalNAcT(33-421; L302A)
B8: TnGalNAcT(W336H): T. ni GalNAcT mutant, tryptophan 336 to histidine, SEQ ID NO: 51 (protein)
chain: MGGRATRALRLLLLLVLALAAVEYLFGSILDASPLRTYLYTPLYNATQPTLRNVERLAANWPKKIPSNYIEDSEEYSIKNISLSNHTTRASVVHPPSSITETASKLDKNMTIQDGAFAMISPTPLLITKLMDSIKSYVTTEDGVKKAEAVVTLPLCDSMPPDLGPITLNKTELELEWVEKKFPEVEWGGRYSPPNCTARHRVAIIVPYRDRQQHLAIFLNHMHPFLMKQQIEYGIFIVEQEGNKDFNRAKLMNVGFVESQKLVAEGWQCFVFHDIDLLPLDTRNLYSCPRQPRHMSASIDKLHFKLPYEDIFGGVSAMTLEQFTRVNGFSNKYWGHGGEDDDMSYRLKKINYHIARYKMSIARYAMLDHKKSTPNPKRYQLLSQTSKTFQKDGLSTLEYELVQVVQYHLYTHILVNIDERS
B9: TnGalNAcT(I299M): T. ni GalNAcT mutant, isoleucine 299 to methionine, SEQ ID NO: 45 (protein)
chain: B8 chain with I299M, H336W
B10: TnGalNAcT(L302G): T. ni GalNAcT mutant, leucine 302 to glycine, SEQ ID NO: 44 (protein)
chain: B3 chain with L291G
modifications: His6-TnGalNAcT(33-421; L302G)

Tested on: trimmed trastuzumab (core GlcNAc(Fuc) / core GlcNAc, glycan of formula (1))
Test: Glycosyltransfer of sugar derivative to trimmed (Endo S deglycosylated) trastuzumab, MS analysis
Assay type: biochemical
Settings: for major heavy chain product, F2-GalNAz transfer to core GlcNAc(Fuc)-substituted trastuzumab: UDP-F2-GalNAz 0.4 mM, GalNAcT 1 mg/mL, 10 mM MnCl2, pH 8.0, 16 hours, 30° C.; for cumulative conversions of the major and minor product, F2-GalNAz transfer: UDP-F2-GalNAz (18) 1 mM, enzyme 0.25 mg/mL; for cumulative conversions of the major and minor product, F2-GalNBzN3 transfer: UDP-F2-GalNBzN3 (24) 1 mM, enzyme 0.5 mg/mL
Experimental: Trimming of IgG glycans was performed using Endo S from Streptococcus pyogenes (commercially available from Genovis, Lund, Sweden). The IgG (10 mg/mL) was incubated with Endo S (40 U/mL) in 25 mM Tris pH 8.0 for approximately 16 hours at 37° C. The deglycosylated IgG was concentrated and washed with 10 mM MnCl2 and 25 mM Tris-HCl pH 8.0 using an Amicon Ultra-0.5, Ultracel-10 Membrane (Millipore).
Trastuzumab was subjected to the trimming protocol above. Analysis of the trimmed antibody was performed on a JEOL AccuToF equipped with an Agilent 1100 HPLC. Samples (2 μL) were reduced with DTT (2 μL) during 10 min and subsequently diluted with H2O (40 μL) prior to injection. […] The two peaks of heavy chain belonged to one major product (49496 Da, 90% of total heavy chain), resulting from core GlcNAc(Fuc) substituted trastuzumab, and a minor product (49351 Da, ±10% of total heavy chain), resulting from core GlcNac substituted trastuzumab. This is an example of a glycoprotein comprising a glycan according to formula (1).
A solution of 50 μg (modified) IgG, 1 M Tris-HCl pH 8.0, 1 mM EDTA and 30 mM DTT with a total volume of approximately 70 μL was incubated for 20 minutes at 37° C. to reduce the disulfide bridges allowing to analyze both light and heavy chain. If present, azide-functionalities are reduced to amines under these conditions. Reduced samples were washed trice with milliQ using an Amicon Ultra-0.5, Ultracel-10 Membrane (Millipore) and concentrated to 10 μM (modified) IgG. The reduced IgG was analyzed by electrospray ionization time-of-flight (ESI-TOF) on a JEOL AccuTOF. Deconvoluted spectra were obtained using Magtran software.
Enzymatic introduction of galactose derivative (e.g. azido-containing sugar) onto IgG was effected with a GalNAc-transferase or a mutant thereof. The deglycosylated IgG (prepared as described above, 10 mg/mL) was incubated with a modified UDP-galactose derivative (e.g. an azido-modified sugar-UDP derivative) (0.4 mM) and GalNAcT (1 mg/mL) in 10 mM MnCl2 and 25 mM Tris-HCl pH 8.0 for 16 hours at 30° C. The functionalized IgG (e.g. azido-functionalized IgG) was incubated with protein A agarose (40 μL per mg IgG) for 2 hours at 4° C. The protein A agarose was washed three times with PBS and the IgG was eluted with 100 mM glycine-HCl pH 2.7. The eluted IgG was neutralized with 1 M Tris-HCl pH 8.0 and concentrated and washed with PBS using an Amicon Ultra-0.5, Ultracel-10 Membrane (Millipore) to a concentration of 15-20 mg/mL.
Enzymatic introduction of galactose derivative (e.g. thio-containing sugar 21) onto IgG was effected with a GalNAc-transferase or a mutant thereof. The deglycosylated IgG (prepared as described above, 10 mg/mL) was incubated with a modified UDP-galactose derivative (e.g. an thio-modified sugar-UDP derivative) (2 mM) and GalNAcT (0.2 mg/mL) in 10 mM MnCl2 and 50 mM Tris-HCl pH 6.0 for 16 hours at 30° C. The functionalized IgG (e.g. thio-functionalized trastuzumab) was incubated with protein A agarose (40 μL per mg IgG) for 1 hours at rt. The protein A agarose was washed three times with TBS (pH 6.0) and the IgG was eluted with 100 mM glycine-HCl pH 2.5. The eluted IgG was neutralized with 1 M Tris-HCl pH 7.0 and concentrated and washed with 50 mM Tris-HCl pH 6.0 using an Amicon Ultra-0.5, Ultracel-10 Membrane (Millipore) to a concentration of 15-20 mg/mL.

Molecule	cumulative conversions of the major and minor product, F2-GalNAz transfer (overnight)	cumulative conversions of the major and minor product, F2-GalNBzN3 transfer (overnight)	other results
B1	–	–	major heavy chain product, F2-GalNAz transfer to core GlcNAc(Fuc)-substituted trastuzumab: approximately 90 % of total heavy chain; major product, GalNButN3 transfer to core GlcNAc(Fuc) substituted trastuzumab (UDP-GalNButN3 0.7 mM, AsGalNAcT(wt) 0.2 mg/mL, overnight): 50 % of total heavy chain; major product, GalNProSH transfer to core GlcNAc(Fuc) substituted trastuzumab (UDP-GalNProSH 2 mM, AsGalNAcT 0.2 mg/mL, overnight): 95 % of total heavy chain; major product, GalNPropN3 transfer to core GlcNAc(Fuc) substituted trastuzumab (UDP-GalNPropN3 0.7 mM, AsGalNAcT 0.2 mg/mL, overnight): 70 % of total heavy chain
B2	–	–	major heavy chain product, F2-GalNAz transfer to core GlcNAc(Fuc)-substituted trastuzumab: approximately 90 % of total heavy chain
B3	95%	14%	–
B4	27%	–	–
B5	24%	–	–
B6	5%	–	–
B7	95%	37%	–
B8	–	62%	–
B9	–	26%	–
B10	–	14%	–
